Legend:
EGFP-GL261 glioma cells [1] = experiment: BrdU incorporation of glioma cells expressing shGM-CSF; type: cell-based, mouse; conditions: FIG. 10C
EGFP-GL261 glioma cells [2] = experiment: MTT metabolism test of glioma cells expressing shGM-CSF; type: cell-based, mouse; conditions: FIG. 10D
Text: To check if glioma-derived GM-CSF is responsible for recruitment of microglia/macrophages to gliomas and for tumor growth, EGFP-GL261 glioma cells stably depleted of GM-CSF were generated by over-expressing plasmids encoding specific shRNA. Silencing of GM-CSF expression at the mRNA level (FIG. 10A) and at the protein level (FIG. 10B) in two independently derived clones was confirmed by qPCR and ELISA. Two clones derived in parallel and expressing negative shRNA served as controls.

EGFP-GL261 glioma = experiment: Intracranial EGFP-GL261 glioma implantation in C57BL/6 mice; type: in vivo, mouse
Procedure: Adult C57BL/6 mice (12-16 wk) were anesthetized with an i.p. injection of ketamine (75 mg/kg) and medetomidine (1 mg/kg). EGFP-GL261 glioma cells, shGM-CSF glioma cells or shNeg glioma cells (8×10^4 cells in 1 μl of DMEM) were inoculated in a right striatum using 1-μl syringe with a 26-gauge needle in a stereotactic apparatus according to the coordinates (+1.5 mm AP, −1.5 mL). Mice were resuscitated using i.p. administration of atipamazole and […] Tolfedine 4% (4 mg/kg s.c.). At day 15th after glioma implantation, the animals were anesthetized, sacrificed and perfused with PBS or PBS and 4% paraformaldehyde in PBS. The brains were removed and minced or post-fixed for 24 h in the same fixative solution and placed in 30% sucrose in PBS at 4° C. Next, brains were frozen with dry CO2 and serial 20-μm-thick coronal sections were collected using a cryostat. Images were acquired using a Leica DM4000B microscope.
Tumor areas in coronal sections were measured using Image Pro-Plus software in an every second brain slice and tumor volumes were calculated according to the Cavalieri principle.
Staining with anti-Iba1 and anti-vWF antibodies was performed to detect microglia/macrophages and blood vessels, respectively. Sections were incubated with 0.5% H2O2 in PBS for 30 min at RT, permeabilized and blocked with 10% donkey serum with the addition of 0.3% Triton X-100 in PBS, and then incubated with the primary antibodies: anti-Iba-1 (rabbit, polyclonal, WAKO, 1:1000) or anti-vWF (rabbit, polyclonal, Abcam, 1:1000) for 24 h at 4° C. and with the secondary goat anti-rabbit biotinylated IgG for 2 hr at RT. The primary and secondary antibodies were diluted in PBS containing 0.1% Triton X-100 and 3% donkey serum. The sections were exposed to extravidin-peroxidase complex (1:200) for 1 h at RT and peroxidase activity was visualized with 0.02% 3.3′-diaminobenzidine (DAB) and 0.01% H2O2 in Tris buffer (pH 7.6). Sections were dehydrated and mounted with Histofluid (Sigma, Germany). […]

[3] = tested on: EGFP-GL261 glioma cells in murine brain slices; experiment: Tumor invasion in organotypical brain slice cultures; type: cell-based, mouse; conditions: 5d after injection; FIGS. 12A and B
Procedure: The organotypical brain slice cultures were obtained from 16-day-old male C57/BL6 mice (animal breeding facility, Schonwalde, Germany). The brain slices cut into 250 μm sections were transferred to a Transwell insert in a 6-well plate (Becton Dickinson, Lincoln Park, N.J., USA) and were incubated in 1 ml of DMEM (Gibco, Gaithersburg, Md., USA) supplemented with 10% FCS (Atlanta Biological, USA), 0.2 mM glutamine and antibiotics. After overnight equilibration, medium was exchanged for the cultivation medium containing 25% FCS, 50 mM sodium bicarbonate, 2% glutamine, 25% Hanks balanced salt solution, 1 μg/ml insulin (all from Gibco, Gaithersburg, Md., USA), 2.46 mg/ml glucose (Braun Melsungen AG, Germany), 0.8 μg/ml vitamin C (Sigma-Aldrich, Germany), 5 mM Tris and antibiotics. Slices were injected with 10,000 GFP-GL261 glioblastoma cells (in 0.5 μl) using a syringe mounted to a micromanipulator. […]
To investigate whether GM-CSF expression influences microglia dependent invasion or directly affects glioma invasion, an organotypic brain slice culture was used as a model. Control or GM-CSF-depleted EGFP-GL261 glioma cells were injected into murine brain slices and resulting tumor size was quantified 5d after injection by measuring the projected fluorescent area covered by the EGFP-glioma cells within the slice. […]

[4] = tested on: intracranial GL261 gliomas; experiment: Survival of mice with intracranial gliomas (Kaplan-Meier); type: in vivo, mouse
Procedure: Mice were randomly assigned to receive intracranial implantation of shNeg or shRNA glioma cells and observed until becoming moribund. EGFP-GL261 glioma cells, shGM-CSF glioma cells or shNeg glioma cells were inoculated in a right striatum using a syringe with a 26-gauge needle in a stereotactic apparatus according to the coordinates (+1.5 mm AP, −1.5 mL). Mice were resuscitated using i.p. administration of atipamazole and treated with the Tolfedine 4% (4 mg/kg s.c.) analgesic. Kaplan-Meier analysis of mice implanted with shGM-CSF and shNeg glioma cells (n=10 mice per group) was performed.
Two mice having shGM-CSF-gliomas were alive 63 days post implantation.

[5] = tested on: osteopontin (spp1) mRNA in C6 glioma cells; experiment: qPCR of osteopontin silencing in stable C6 glioma clones; type: cell-based, rat; conditions: stable C6 glioma cell lines; FIGS. 7A and C
Procedure: Forward and reverse oligonucleotides were incubated in 0.1 M NaCl for 3 min at 94° C., followed by slow cooling to 37° C. for 1 h. The annealed DNA was ligated with pSilencer 2.0-U6 (Ambion, Germany) at BamHI and HindIII sites. After transformation into E. coli, plasmids were amplified, isolated and the sequences were verified by sequencing. The pSilencer-spp1, pSilencer-mfg8 pSilencer-GM-CSF and pSilencer 2.0-U6 Negative Control (Ambion) vectors were purified with Qiagen Plasmid Maxi Kit and 1.6 μg of each DNA was transfected into cells using 2 μl Lipofectamine-2000 (Invitrogen, UK). One day after transfection, hygromycin B (200 μg/ml) was added. Resistant clones were picked after 2 weeks and analysed for expression of appropriate mRNA by qRT-PCR.
RNA was isolated with RNeasy Mini Kit (Qiagen). First-strand cDNA was synthesized from 2 μg of total RNA (DNase-treated) in a 20 μl reverse transcriptase reaction mixture. […] The expression of Osteopontin, and lactadherin in C6 rat glioma cells and primary astrocytes was evaluated using qPCR. The expression of GM-CSF in GL261 glioma cells and primary astrocytes was evaluated using qPCR. […]
Reaction volume (20 μl) consisted of cDNA equivalent to 50 ng RNA, 1×SYBR Green PCR master mix (Applied Biosystems) and 0.9 μM of each primer. […] Relative quantification of gene expression was determined using the comparative CT method. […]

microglia cells = experiment: qPCR of GCM-induced genes in microglia exposed to GCM of shRNA-expressing C6 glioma cells; type: cell-based, rat; conditions: FIG. 7D
Procedure: Total RNA (2 μg) isolated from microglia cultures untreated or treated for 6 h with LPS or G-CM was used as a template to generate cDNA. As endogenous control 18S (Hs99999901_s1) rRNA was applied. Gene expression quantification was performed using the Applied Biosystem TaqMan® The real time amplifications were performed in duplicates in a 20 μl reaction volume containing 2×SYBR PCR MasterMix and a set of primers designed using PRIMER EXPRESS software for the following genes: iNOS, COX-2, II1beta, TNF alpha, MMP-2, MMP-9, MMP-14, Arg1, Id1 and c-Myc. The amount of target mRNA was first normalized to the 18S RNA expression level and then to a control. Data were analysed by the Relative Quantification (^ΔΔCt) method using 7500 System SDS software (Applied Biosystems). The expression of each product was normalized to 18S rRNA and is shown as the ratio of the target gene to 18S gene expression, calculated by 2^−ΔΔCt.
To investigate the role of identified proteins in GCM-induced activation of microglia cells, stable C6 glioma cell lines expressing shRNAs specific to osteopontin (shSPP1), or a control, negative shRNA (shNeg) were generated. Silencing efficiency was approximately 98.5% (FIGS. 7A and C). Silencing of […] inhibited GCM-induced expression c-Myc and smad7 in microglia cells (FIG. 7B). […]

C6 glioma cells = experiment: Matrigel matrix invasion of C6 glioma cells in presence of microglia; type: cell-based, rat; conditions: laser scanning cytometry; FIG. 7E
Procedure: The invasion assay was performed as described (Wesolowska et al. 2008, Kwiatkowska et al. 2011). Briefly, 24-well tissue culture inserts (12 μm pore size Transwell, Corning, N.Y., USA) were coated with the Growth Factor Reduced Matrigel™ Matrix (BD Biosciences, San Diego. Calif., USA). 100 μl of the Matrigel™ Matrix (1 mg/ml) diluted in distilled water, was dried under sterile conditions (37° C.) for 5-6 hours and reconstituted for 30 minutes in 200 μl of culture medium. C6 glioma cells (1.5×10^4/insert) were seeded on Matrigel-coated membrane in the serum-reduced medium (2% FBS) and exposed to microglia or left untreated. After 48 h cells were fixed and cell nuclei stained with DAPI. The membranes from Transwell® inserts were cut out and the total number of cells that migrated through the Matrigel was determined using Laser Scanning Cytometry (LSC, CompuCyte). All experiments were performed in triplicate. The data from three independent experiments were pooled and expressed as the average number of cells±S.D.
To investigate the role of identified proteins in GCM-induced activation of microglia cells, stable C6 glioma cell lines expressing shRNAs specific to osteopontin (shSPP1), or a control, negative shRNA (shNeg) were generated. Silencing efficiency was approximately 98.5% (FIGS. 7A and C). […]

C6 glioma = C6 glioma implantation into striatum of Wistar rats; type: in vivo, rat; conditions: 15 days after implantation, FIG. 19C
Procedure: RNA was isolated from rat C6 glioma clones stably expressing shRNA against osteopontin cells and cDNA was synthesized using reverse-transcriptase and random hexamer primers. Knock down efficiency of osteopontin was confirmed by Real Time PCR (FIG. 19A). C6 glioma cells expressing control shRNA (shNeg) or glioma cells depleted of osteopontin (shSPP1) (5×10^4 cells/2.5 μl of DMEM) were implanted into the right striatum of 8-10 weeks old Wistar rats. 15 days after glioma implantation, the animals were sacrificed and intracardially perfused with 4% paraformaldehyde. The brains were removed, frozen with dry CO^2 and serial 20- or 12-μm-thick coronal sections were collected using a cryostat. To quantify the tumor size, 20 μm-thick sections were stained with toluidine blue, images were acquired using a Leica DM4000B microscope. Tumor areas were measured using ImageJ software in an every fourth brain slice and tumor volumes were calculated according to the Cavalieri principle (Gabrusiewicz et al, 2011). […] Moreover, gliomas from implanted C6-Neg were of similar sizes as WT C6 cells (n=5, 28.33±14.53 mm^3). […] Results are expressed as the means±s.d. from 2 independent experiments (U-Mann-Whitney test).

B1: shGM-CSF: shRNA to mouse GM-CSF, oligonucleotides SEQ ID NO: 23 and 24, stably expressed in EGFP-GL261 glioma cells (nucleic acid)
chain 1: GATCCCGGAAACGGACTGTGAAACATTCAAGAGATGTTTCACAGTCCGTTTCCGGTTTTTTGGAAA
chain 2: AGCTTTTCCAAAAAACCGGAAACGGACTGTGAAACATCTCTTGAATGTTTCACAGTCCGTTTCCGG
EGFP-GL261 glioma cells [1]
  proliferation of glioma cells (BrdU incorporation): did not affect
EGFP-GL261 glioma cells [2]
  survival of glioma cells (MTT metabolism): did not affect
EGFP-GL261 glioma; vs control gliomas (shNeg), FIGS. 11A and B
  number of microglia/macrophages (anti-Iba-1 staining): reduced number
EGFP-GL261 glioma; vs controls, FIG. 11C
  formation of tumor vessels (anti-vWF staining): reduced formation
EGFP-GL261 glioma; vs shNeg glioma cells, day 15, FIG. 11D-E
  reduction of tumor size: 65%
[3]
  average tumor size smaller than controls (fluorescent area): 58%
[4]; 63 days post implantation
  mice alive 63 days post implantation: Two
[4]; n=10 mice per group, FIG. 16
  survival of mice: significant survival benefit

B2: shSPP1: shRNA specific to rat osteopontin, oligonucleotides SEQ ID NO: 21 and 22, stably expressed in C6 glioma cells (nucleic acid)
chain 1: GATCCAGCTAGTCCTAGACCCTAATTCAAGAGATTAGGGTCTAGGACTAGCTTGTTTTTTGGAAA
chain 2: AGCTTTTCCAAAAAACAAGCTAGTCCTAGACCCTAATCTCTTGAATTAGGGTCTAGGACTAGCTG
modifications: the letters are possibly those of the target site
[5]
  Silencing efficiency: approximately 98.5%
Microglia cells
  GCM-induced expression arg-1 and smad7 in microglia cells: inhibited
C6 glioma cells
  microglia-dependent invasion of glioma cells through Matrigel: strongly reduces
C6 glioma
  tumor volume (mean value): 6.03 mm^3
C6 glioma; vs C6-Neg
  reduction in tumor volumes: 88%

From patent publication US9453050B2, “Compositions for treating glioma” (GLIA SP Z.O.O., priority 2011, dated 2016)
